Where two headings read alike, the source gives them in different places.
B1: Antibody 136 (antibody, human IgG1, kappa, V domains shown)
VH: EVQLVQSGAEVKKPGATVKISCKASGYTFSDYYLHWVRQAPEKGLEWMGWIDPENGDTEYAPKFQGRVTITADTSTDTGYLELSSLRSEDTAVYYCAANKELRYFDVWGQGTLVTVSS
VL: DIQMTQSPSSVSASVGDRVTITCRASQSISINLHWYQQKPGKAPKLLIYFASQSISGVPSRFSGSGSGTDFSLTINSLQTEDFATYYCQQSNSFPLTFGGGTKVEIKR
notes: Humanized PMA204 (1RZ7 framework)

Experiments:
[1] = molecular target: T1, human IL-12 (human, UniProt P29460 23-328; P29459 23-219); assay: neutralization ELISA: IL-12 preincubated with antibody, its binding to coated IL-12Rβ2/Fc is blocked
T1 construct: Recombinant (Peprotech); FLAG-tagged IL-12 in the flow cytometry assays, biotinylated in the IL-12Rβ2 assay; also called hIL-12
T1 sequence 1: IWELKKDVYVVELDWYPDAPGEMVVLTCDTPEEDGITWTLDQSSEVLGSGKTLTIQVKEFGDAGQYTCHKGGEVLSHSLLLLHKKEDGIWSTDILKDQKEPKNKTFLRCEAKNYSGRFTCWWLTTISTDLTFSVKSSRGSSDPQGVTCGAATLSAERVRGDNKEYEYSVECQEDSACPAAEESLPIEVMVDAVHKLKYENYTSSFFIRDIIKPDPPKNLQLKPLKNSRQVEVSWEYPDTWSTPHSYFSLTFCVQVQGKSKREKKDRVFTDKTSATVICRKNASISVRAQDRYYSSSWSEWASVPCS
T1 sequence 2: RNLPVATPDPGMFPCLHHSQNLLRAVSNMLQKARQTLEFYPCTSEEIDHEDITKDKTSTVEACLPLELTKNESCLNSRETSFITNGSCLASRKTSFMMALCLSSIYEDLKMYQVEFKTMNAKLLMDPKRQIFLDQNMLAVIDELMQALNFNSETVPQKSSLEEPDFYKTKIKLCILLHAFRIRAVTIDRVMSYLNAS
Outline: (§1)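 After a 2-hour preincubation with titrated antibody, biotinylated IL-12 was added for 2 hours at 25° C to wells coated overnight at 4° C with IL-12Rβ2/Fc chimera at 5 ug/ml in carbonate buffer and blocked with 1% BSA for 1 hour at 25° C. Signal came from Streptavidin HRP 1:5000 with TMB, stopped with 1M HCl, at 450 nm with a 620 nm reference. IC50 values were read from the curve.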

[2] = molecular target: T1, human IL-12; assay: sandwich ELISA: IL-12 held by coated PMA202, Antibody 136 titrated, anti-human Fc-HRP
Outline: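 Capture antibody at 1 μg/mL was coated overnight at 4° C and blocked with 1% BSA. IL-12 at 0.5 μg/ml was bound for 1 hour at 25° C, followed by half-log serial dilutions of test antibody for 1 hour. Bound antibody was detected with goat anti-human IgG Fc-HRP (1:2000) and TMB, stopped with 1 M HCl, and optical density read at 450 nm (reference 620 nm). EC50 was read off the curve.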

[3] = molecular target: T2, human IL-23 (human, UniProt P29460 23-328; Q9NPF7 20-189); assay: SPR, IgG on Protein A
T2 construct: Recombinant (Ebioscience); HIS-tagged in flow cytometry, biotinylated in some assays; also called hIL-23; rhIL-23
T2 sequence 1: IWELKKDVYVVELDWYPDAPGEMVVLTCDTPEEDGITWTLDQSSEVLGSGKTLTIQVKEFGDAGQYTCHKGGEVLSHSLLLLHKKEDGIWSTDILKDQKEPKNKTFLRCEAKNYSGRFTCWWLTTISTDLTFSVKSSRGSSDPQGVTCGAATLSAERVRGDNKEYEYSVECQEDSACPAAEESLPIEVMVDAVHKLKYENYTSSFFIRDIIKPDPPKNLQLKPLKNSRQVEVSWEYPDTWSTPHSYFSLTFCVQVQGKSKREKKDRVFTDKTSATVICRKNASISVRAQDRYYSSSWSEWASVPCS
T2 sequence 2: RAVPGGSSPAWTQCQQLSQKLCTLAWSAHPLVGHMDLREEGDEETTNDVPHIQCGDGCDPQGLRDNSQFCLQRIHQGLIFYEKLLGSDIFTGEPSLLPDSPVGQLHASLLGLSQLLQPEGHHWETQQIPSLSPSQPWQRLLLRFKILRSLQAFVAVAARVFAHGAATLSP
Protocol: (§2) Using SPR technology the kₐ and kd and the KD of various humanized antibodies was determined.
(§3) Using a SPR 3000, Protein A was immobilized onto FC1 and FC2 (or alternatively FC3 and FC4) of a CM5 research grade sensor chip using amine coupling, giving approximately […] RU. FC1 was used a blank throughout the experiments. The experiments were run in HBS-P buffer (SPR). At a flow rate of 20 μl/min, 20 μl of 5 μg/mL of antibody was passed over FC2. IL-12, IL-23 or IL-12p40 (Peprotech) were passed over the surface of FC1 and FC2 at concentrations ranging from 66 nM to 2 nM. Regeneration of the surface was performed using 10 mM Glycine, pH 1.0. The sensorgram data from FC2 was subtracted from FC1 and a buffer only control. The curves were fitted using a 1:1 Langmuir equation to generate the kd, ka and KD values. All curves were fitted with a χ² of less then 2.0 where possible.

[4] = molecular target: T1, human IL-12; assay: SPR, IgG on Protein A
Protocol: as §2, §3

[5] = molecular target: T2, human IL-23; assay: sandwich ELISA: IL-23 held by coated PMA202, Antibody 136 titrated, anti-human Fc-HRP
[6] = molecular target: T2, human IL-23; assay: neutralization ELISA: IL-23 preincubated with antibody, its binding to coated IL-23R is blocked
Outline: (§4)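 Wells were coated overnight at 4° C with His-tagged IL-23R made in HEK-293E cells in carbonate buffer, then blocked with 1% BSA. Titrated antibody was preincubated for 2 hours with biotinylated IL-23 at 50 ng/ml, and the mix was added to the wells for 2 hours at 25° C. Bound IL-23 was detected with Streptavidin HRP at 1:5000 and TMB for 15 minutes, stopped with 1M HCl and read at 450 nm against a 620 nm reference. The IC50 came from the resulting curve.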

[7] = molecular target: T2, human IL-23; assay: ELISA, coated IL-23
Protocol: (§5) IL-12 (Peprotech), IL-23 (Ebioscience™), IL-12p40 (Ebioscience™) or IL-12p80 (Peprotech), was diluted to 1 μg/mL in carbonate coating buffer ([…] pH 9.6) and coated onto a 96 well plate (Nunc™, Maxisorp™) overnight at 4° C. The plate was then washed three times with wash buffer (0.01M PBS pH 7.2, 0.05% Tween-20) and then three times with 0.01M PBS pH 7.2. The wells were then blocked by adding 200 μl of blocking buffer (1% w/v BSA in 0.01 M PBS pH 7.2) to each well and incubating the plate at 25° C. for 1 hour. The antibody was diluted in antibody diluent (1% w/v BSA, 0.05% Tween-20 in 0.01M PBS pH 7.2) sufficient to generate a titration curve. The wells were incubated with the antibody for 1 hour at 25° C. The plate was then washed as previously described. Goat anti-human immunoglobulin G (H+L) antibody HRP conjugate (Zymed®) at 1:2000 in antibody diluent was used to detect bound primary antibody. Goat anti-murine immunoglobulin antibody HRP conjugate (Dako) at 1:2000 in antibody diluent was used to detect bound murine antibody. After incubation at 25° C. for 1 hour the plate was washed again as previously described. TMB substrate solution (Zymed®) was added to each well and the colour allowed to develop; the reaction was terminated by adding 1M HCl to the wells. The absorbance of each well was determined at 450 nm (ref. 620 nm).

[8] = molecular target: T2, human IL-23; assay: neutralization ELISA: IL-23 preincubated with antibody, its binding to coated IL-23R is blocked; remark: listed apart in the source
Outline: as §4

[9] = molecular target: B1; assay: SPR control: PMA204 injected over Antibody 136 captured on Protein A, no cytokine
Protocol: (§6) Protein A (Thermo) was immobilized onto a CM5 sensor chip using a BIAcore 3000. Chimeric or humanized antibody at 5 ug/mL in HBS-P (GE Healthcare) was then injected for 1 min at a flow rate of 20 ul/min. IL-12 or IL-23 was then injected over the surface at 5 ug/mL in HBS-P for 1 min at a flow rate of 20 ul/min. Murine antibody was then injected at 5 ug/mL in HBS-P for 1 min at a flow rate of 20 ul/min. Controls in which IL-12 or IL-23 was replaced with HBS-P, and in which the murine antibody was replaced with HBS-P were also performed. All data was substrated from a control run in which IL-12 or IL-23 or the murine antibody was tested for background binding to the Protein A surface.

[10] = molecular target: T1, human IL-12; assay: ELISA, coated IL-12
Protocol: as §5

[11] = molecular target: T1, human IL-12; assay: neutralization ELISA: IL-12 preincubated with antibody, its binding to coated IL-12Rβ2/Fc is blocked; remark: listed apart in the source
Outline: as §1

[12] = molecular target: T3, human IL-12p40 (human, UniProt P29460 23-328); assay: ELISA, coated IL-12p40
T3 construct: p40 monomer; also called p40 subunit
T3 sequence: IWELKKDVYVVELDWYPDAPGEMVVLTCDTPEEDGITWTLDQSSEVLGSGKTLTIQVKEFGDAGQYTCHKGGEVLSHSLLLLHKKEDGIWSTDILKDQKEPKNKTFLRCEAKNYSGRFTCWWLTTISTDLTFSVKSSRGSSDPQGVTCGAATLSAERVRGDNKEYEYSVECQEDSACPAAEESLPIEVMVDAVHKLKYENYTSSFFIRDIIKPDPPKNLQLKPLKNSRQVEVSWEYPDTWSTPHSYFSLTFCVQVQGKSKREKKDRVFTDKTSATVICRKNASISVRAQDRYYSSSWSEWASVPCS
Protocol: as §5

[13] = molecular target: T2, human IL-23; assay: SPR, IgG on Protein A; remark: listed apart in the source
Protocol: as §3

[14] = molecular target: T1, human IL-12; assay: SPR, IgG on Protein A; remark: listed apart in the source
Protocol: as §3

[15] = molecular target: T2, human IL-23; assay: SPR, IgG on Protein A; remark: listed apart in the source
Protocol: as §3

[16] = molecular target: T3, human IL-12p40; assay: SPR, IgG on Protein A
Protocol: as §3

[17] = molecular target: T1, human IL-12; assay: SPR, IgG on Protein A; remark: listed apart in the source
Protocol: as §3

[18] = molecular target: B1; assay: SPR control: PMA202 injected over Antibody 136 captured on Protein A, no cytokine
Protocol: as §6

B1
IC50 (read off the curve) [1]: ~0.4 µg/mL | EC50 (read off the curve) [2]: ~0.1 µg/mL | Kd [3]: 105 pM | koff [3]: 0.000795 s⁻¹ | kon [3]: 7.55e+06 M⁻¹ s⁻¹ | Kd [4]: 197 pM | koff [4]: 0.000997 s⁻¹ | kon [4]: 5.05e+06 M⁻¹ s⁻¹ | EC50 (read off the curve) [5]: ~0.06 µg/mL | IC50 (read off the curve) [6]: ~1 µg/mL

B2: PMA204 (antibody, V domains shown)
VH: EVQLQQSGADLVRSGASIKLSCTASGFNIKDYYMHWVKQRPEQGLEWIGWIDPENGDTEYAPKFQGKATMTADTSSNTAYLQLSSLTSEDTAVYYCNACKELRYFDVWGAGTTVTVSS
VL: DIVLTQSPATLSVTPGDSVSLSCRASQSISINLHWYQQKSHESPRLLIKFASQSISGIPSRFSGYGSGTDFTLSINSVETEDFGRYFCQQSNSWPLTFGAGTKLELKR
notes: Murine hybridoma antibody, murine IgG1kappa
EC50 (read off the curve) [7]: ~0.01 µg/mL | IC50 (read off the curve) [8]: ~0.6 µg/mL | binding result [9]: no binding | EC50 (read off the curve) [10]: ~0.02 µg/mL | IC50 (read off the curve) [11]: ~0.2 µg/mL

B3: Antibody 1 (antibody, human IgG1, kappa, V domains shown)
VH: EVQLQQSGADLVRSGASIKLSCTASGFNIKDYYMHWVKQRPEQGLEWIGWIDPENGDTEYAPKFQGKATMTADTSSNTAYLQLSSLTSEDTAVYYCNACKELRYFDVWGAGTTVTVSS
VL: DIVLTQSPATLSVTPGDSVSLSCRASQSISINLHWYQQKSHESPRLLIKFASQSISGIPSRFSGYGSGTDFTLSINSVETEDFGRYFCQQSNSWPLTFGAGTKLELKR
notes: Chimeric PMA204, human IgG1/kappa
EC50 (read off the curve) [12]: ~0.03 µg/mL | IC50 (read off the curve) [8]: ~1 µg/mL | IC50 (read off the curve) [11]: ~0.4 µg/mL | Kd [13]: 51.3 pM | koff [13]: 0.000146 s⁻¹ | kon [13]: 2.85e+06 M⁻¹ s⁻¹ | Kd [14]: 79.5 pM | koff [14]: 0.000132 s⁻¹ | kon [14]: 1.67e+06 M⁻¹ s⁻¹ | Kd [15]: 44.6 pM | koff [15]: 0.000114 s⁻¹ | kon [15]: 2.55e+06 M⁻¹ s⁻¹ | Kd [16]: 66.3 pM | koff [16]: 7.12e-05 s⁻¹ | kon [16]: 1.07e+06 M⁻¹ s⁻¹ | Kd [17]: 47.7 pM | koff [17]: 6.45e-05 s⁻¹ | kon [17]: 1.36e+06 M⁻¹ s⁻¹

B4: PMA202 (antibody, V domains shown)
VH: QIQLVQSGPELKKPGETVKISCKASGYTFTNYGMNWVKQAPGKGLKWMGWINTYTGEPTYADDFKGRFAFSLETSASTAYLQINNFKNEDTATYFCARSLSTMITTTFAYWGQGTLVTVSS
VL: SIVMTQTPKFLLVSAGDRVTITCKASQSVSNDVAWYQQKPGQSPKLLIYYASNRYTGVPDRFTGSGYGTDFTFTISTVQAEDLAVYFCQQDYSSPYTFGGGTKLEIKR
notes: as for B2
binding result [18]: no binding

— patent US20110262445A1 (CEPHALON AUSTRALIA, published 2011)
